Assay results published in patent publication US20020001840A1.

Biological target: purified αvβ3 integrin (UniProt P06756)
Test: cell-based or functional assay

Sequence of purified αvβ3 integrin (P06756 31-1048, form in doubt, chain 1 of 2): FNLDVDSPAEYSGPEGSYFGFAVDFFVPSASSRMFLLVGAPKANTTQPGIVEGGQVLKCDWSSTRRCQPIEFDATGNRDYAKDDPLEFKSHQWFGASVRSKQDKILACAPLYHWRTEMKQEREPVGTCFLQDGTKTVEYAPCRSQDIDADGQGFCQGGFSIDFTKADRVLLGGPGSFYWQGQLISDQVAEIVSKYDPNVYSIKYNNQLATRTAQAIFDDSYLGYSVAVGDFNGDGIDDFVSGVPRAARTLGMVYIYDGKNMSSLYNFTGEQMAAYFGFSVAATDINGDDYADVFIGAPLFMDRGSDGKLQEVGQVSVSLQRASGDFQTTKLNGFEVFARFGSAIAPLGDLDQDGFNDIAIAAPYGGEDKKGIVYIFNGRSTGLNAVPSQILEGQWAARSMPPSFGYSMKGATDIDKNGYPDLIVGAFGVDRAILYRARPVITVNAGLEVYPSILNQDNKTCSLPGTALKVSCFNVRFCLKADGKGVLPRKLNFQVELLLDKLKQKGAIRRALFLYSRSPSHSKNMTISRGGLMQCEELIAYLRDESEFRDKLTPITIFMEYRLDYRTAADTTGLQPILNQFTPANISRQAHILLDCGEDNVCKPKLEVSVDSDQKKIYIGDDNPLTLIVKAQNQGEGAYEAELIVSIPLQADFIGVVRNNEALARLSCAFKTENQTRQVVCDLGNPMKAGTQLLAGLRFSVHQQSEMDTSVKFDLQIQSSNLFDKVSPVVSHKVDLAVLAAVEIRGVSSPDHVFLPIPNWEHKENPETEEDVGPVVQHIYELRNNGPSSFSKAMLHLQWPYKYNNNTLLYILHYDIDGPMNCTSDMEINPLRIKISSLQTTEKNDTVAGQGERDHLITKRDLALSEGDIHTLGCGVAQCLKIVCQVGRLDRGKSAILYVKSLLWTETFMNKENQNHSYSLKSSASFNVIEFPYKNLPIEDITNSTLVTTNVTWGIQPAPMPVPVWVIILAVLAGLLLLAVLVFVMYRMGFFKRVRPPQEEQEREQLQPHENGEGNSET
Sequence of purified αvβ3 integrin (P05106 27-788, form in doubt, chain 2 of 2, further chain): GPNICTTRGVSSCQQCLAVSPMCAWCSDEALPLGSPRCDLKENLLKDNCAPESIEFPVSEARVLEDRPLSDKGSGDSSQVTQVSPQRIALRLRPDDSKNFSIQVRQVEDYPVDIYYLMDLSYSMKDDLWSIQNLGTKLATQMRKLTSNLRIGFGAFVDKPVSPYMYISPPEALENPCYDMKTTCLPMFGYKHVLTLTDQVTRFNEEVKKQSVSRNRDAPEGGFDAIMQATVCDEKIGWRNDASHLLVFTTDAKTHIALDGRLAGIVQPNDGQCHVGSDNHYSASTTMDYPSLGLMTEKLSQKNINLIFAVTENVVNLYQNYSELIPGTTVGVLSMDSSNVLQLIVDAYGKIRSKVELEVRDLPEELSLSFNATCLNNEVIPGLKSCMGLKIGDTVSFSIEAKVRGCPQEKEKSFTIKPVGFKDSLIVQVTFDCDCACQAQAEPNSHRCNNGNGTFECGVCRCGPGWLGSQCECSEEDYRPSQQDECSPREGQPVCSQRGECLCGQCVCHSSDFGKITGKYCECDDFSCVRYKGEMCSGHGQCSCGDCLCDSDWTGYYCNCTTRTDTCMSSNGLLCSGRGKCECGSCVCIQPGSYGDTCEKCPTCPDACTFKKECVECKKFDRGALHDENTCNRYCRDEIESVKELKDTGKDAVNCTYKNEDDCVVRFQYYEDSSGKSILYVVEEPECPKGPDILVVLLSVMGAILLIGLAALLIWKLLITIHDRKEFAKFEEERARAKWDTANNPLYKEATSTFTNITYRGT

Q: How did the cell adhesion promoting effect, SH-Sy5y neuroblastoma cells turn out when “mutADAM 23 disintegrin-like domain (E466A) expressed as a fusion protein with GST (from UniProt O75077 498-588)” was run?
A: Its cell adhesion promoting effect, SH-Sy5y neuroblastoma cells is 40%.
